The record followed here is the supplement of paper PMC12042874.

± gives the uncertainty stated by the source.

The nature of this data set: amyloid nucleation score (Sup35N fusion, yeast selection) (log enrichment); library NNK3; higher = more nucleation; inactive = no reads after selection. Summed up: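 The nucleation score equals the log enrichment of output over input reads from DiMSum, centred on the mode score of non-aggregating sequences. It was computed only for sequences with 100 or more input reads. The reads came from Illumina sequencing of plasmid inserts from psi-negative yeast expressing Sup35N fused to peptides of 20 random codons, induced with 100 μM copper sulfate for 24 hours and grown 7 days at 30°C without adenine and uracil.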
For the substance ALCKCALG, the amyloid nucleation score entry is “inactive”. Turning to TCMPRFSALYICSGTLDKKL, the amyloid nucleation score entry was “inactive”. To SAKSRFSRIVSRFYHMVICA belongs “inactive”; to LYMGSRPFSVIVVRITVGSQ, “inactive”. To VENRYVIINSRVMGD belongs “inactive”; to PNQYWQ, “inactive”; to NYDIILMLGWSVTFKLKVRF, -0.36 ± 1.1.

Take YVMDNNFM: the amyloid nucleation score result is “inactive”. Then MFTTSCWILKER, with 0.248 ± 0.23. Then SGAEDFQV, with “inactive”; and NGKLVFCWDKFIYVYRLTWW, with “inactive”; and ILTIEDGIIYC, with “inactive”. Then FMSTDTLRKCLSACMFGPIP, with 0.021 ± 0.31; and TPDQDMLVMPWISYGGGYWR, with “inactive”; and QRLRHFAVYTMMYEAWASRC, with “inactive”. Regarding VSNNVQVNQVMYFNTVICIV, the amyloid nucleation score came to 2.69 ± 0.063. Then TWISITWTWPWKKWVLNLRY, with “inactive”. Then KTKVTALCNIKGNNGHFPKH, with “inactive”; and ELRSHKLMMGRQYLHRLCSV, with “inactive”. To TRPSTIHFPVWFVGKSCRCD belongs “inactive”. Consider YARYYGCGIWGWWFSNRSLL, for which the amyloid nucleation score entry was “inactive”.

Regarding VVGKFSTADILSFR, the amyloid nucleation score result was “inactive”. Then NIVERQDLLLGLANNWLHLT, with “inactive”; and YVVFYHLAVALSLKMASKRI, with -0.826 ± 1.9.

For the substance RDKKNNRVYFGGYSLGTWSC, the amyloid nucleation score entry was “inactive”.

For the substance GSRYRWVTATTIMSCGYEQE, the amyloid nucleation score result is “inactive”. To YDCVGDGWRPWLRPEDRSHV belongs “inactive”; to QVYLVIV, “inactive”. Then RLQVRLSLLRWFRNYGLTIA, with “inactive”.

In the case of AVRWQSGSTRFLSCWLWQKN, the amyloid nucleation score result is “inactive”. Then YKYGFAFCIIASAVSR, with “inactive”; and GSGLLE, with “inactive”. Then PDGTILMCGRPMCYIVYGAK, with “inactive”; and TTDGFRVRSTLYNYICVWRY, with “inactive”; and IIRMMFISFN, with 1.84 ± 0.076.

With MPTTHASLSSSFLG, the amyloid nucleation score entry is “inactive”.

In the case of CSRSKNNTFRHSLWFHRYYA, the amyloid nucleation score result was “inactive”. To EFLPKWDMQARDVTTLFGCP belongs “inactive”; to SHYFK, “inactive”; to ISSPDSTTIRNDVSD, “inactive”. To YAYMYNVCYGDCRCANGVWY belongs 2.71 ± 0.084. Then IWLTWTSEYCTIFGFVLPVV, with “inactive”; and LLEQMQGFRLIQSGVHNTLM, with “inactive”; and AKCFFPGVNLMVGSQLFWLR, with “inactive”.

In the case of YCLTLNHAMIRFGMCCHYMC, the amyloid nucleation score entry is “inactive”. To NMVIV belongs “inactive”; to FIYASCDNHKIDKRYVYLLM, “inactive”; to YYLMLSIGQYSHTCMDGYVM, “inactive”.

IVGYERATFVLRSYRFEKVS: the amyloid nucleation score entry was “inactive”.

In the case of FYELEIV, the amyloid nucleation score result is “inactive”.

As for FRCSG, the amyloid nucleation score entry is “inactive”. Then TGEQECLKQMSISGNRIFVV, with “inactive”; and NNTCMNGAVLWSEMAKTGGC, with “inactive”; and DSVFCVRLAKLVGLHSSF, with “inactive”. To SYRIIEWCSLGKDNLDIRTG belongs “inactive”; to GTTSFVLVCVCWSG, -0.409 ± 0.95. To DNPTYRYTICGMTLEHPKEE belongs “inactive”; to FLEKGLFSLDISFARDLAEA, “inactive”; to LFCVLP, “inactive”. Regarding VSLCIDRSMRCPRLVCVERG, the amyloid nucleation score entry is “inactive”.

As to ICHFTLM, the amyloid nucleation score result is “inactive”. To HLMTQMATRRL belongs “inactive”; to RNLRVIGVTRDHGNF, “inactive”. Then TLFLFIMVMGYSLANLVDSS, with “inactive”. To MVRFMLFMK belongs “inactive”; to VCRFPRFFWTCYSDVLHCFS, “inactive”; to NMMPREPDTFMGYSGRRLCV, -0.284 ± 1.1. Turning to QAQVDKCLLARFVGL, the amyloid nucleation score result is “inactive”. For the substance GHVIMGLSGYGSLASLFKTG, the amyloid nucleation score entry is “inactive”.

NRSLEVNELI displayed an amyloid nucleation score of -0.412 ± 0.68. For PFLCFRIYFSACWINLTLNL, the amyloid nucleation score was determined as 1.78 ± 0.086.

Turning to NSIIGTVDGKSGSNRVRSP, the amyloid nucleation score result is “inactive”.

Consider KFGEAWIIPRDRVMEVFEW, for which the amyloid nucleation score result was “inactive”.

Take FVNLAGLFGSRGTNLLCLGE: the amyloid nucleation score result was “inactive”. Then MGVYAINVRYSAERVMLVAP, with “inactive”. For SFLWGFCRTKETGGSFMFNR, the amyloid nucleation score is 0.264 ± 0.62.

In the case of LLLASVRVRFRHWPTYLRYF, the amyloid nucleation score result is “inactive”. Then INPLLR, with 0.744 ± 0.2; and TYIRGQRCDIQMETWMTLCS, with “inactive”; and FLMSHVII, with “inactive”.

Turning to FFISVLFWNPGISFRITIAA, the amyloid nucleation score result was “inactive”. RLLFSATFSRNFISCTKSSS: the amyloid nucleation score entry is “inactive”.

Consider SVLHVLYCVGSECVYVSSSR, for which the amyloid nucleation score result was “inactive”. As for NAYCPPSLCVKRLYLFRMTK, the amyloid nucleation score result is “inactive”.

On to RMFGNIDCFCIIIMKVSWSG, for which the amyloid nucleation score entry is “inactive”. Then VLDRVKNRVFYLLVECQKLF, with “inactive”.

On to CIIRVYCFWFTDGDFYVLYR, for which the amyloid nucleation score result is “inactive”. To TGISSNHKFMESIDSYVGTP belongs “inactive”. Then GFIDVPG, with “inactive”.

Take LVNEKNIRVEVCIAYACQDS: the amyloid nucleation score is -0.053 ± 0.33. To WFMVIAVCMSAFESKLARFH belongs “inactive”. Then FGFIILDLTR, with “inactive”; and LIKSSRLCLPKYTGVCNSHK, with -0.189 ± 0.88.

Turning to SRRLVKESDDRGCCRGLFWD, the amyloid nucleation score result was “inactive”.

For GSRKYRCVDIISFGEWAVLD, the amyloid nucleation score entry is “inactive”.

The substance WLWKVSFK showed an amyloid nucleation score of 1.41 ± 0.093.
